# From patent publication US20160251438A1 (LUDWIG INSTITUTE FOR CANCER RESEARCH, published 2016)
# B1: LHG-10 (antibody, human IgG1, V domains shown)
# VH: EVQLVQPGAELRNSGASVKVSCKASGYRFTSYYIDWVRQAPGQGLEWMGRIDPEDGGTKYAQKFQGRVTFTADTSTSTAYVELSSLRSEDTAVYYCARNEWETVVVGDLMYEYEYWGQGTQVTVSS
# VL: DIQMTQSPTSLSASLGDRVTITCQASQSISSYLAWYQQKPGQAPKLLIYGASRLQTGVPSRFSGSGSGTSFTLTISGLEAEDAGTYYCQQYDSLPVTFGQGTKVELK
# notes: llama-derived V regions in a full human IgG1
# Columns and labels:
# [1] = biological target: GARP Y137H / TGF-β1 complex (human, UniProt Q14392 20-662; P01137 30-390); test: flow cytometry on transfected 293T cells, 5 ug/ml; grade of Loss of binding read by footnote 2 (error bar crosses the 50% threshold)
# Description: (§1) Resolution of the crystal structure of MHG-8 Fab/GARP/TGF-β1 complexes and analysis with the CONTACT software allowed the identification of 22 amino-acids in GARP, 8 amino-acids in LAP and 6 amino-acids in mature TGF-β1 that are located less than 5 Å away from an amino-acid of the light or heavy chain of the MHG-8 Fab (Tables 7a, b and c, and Table 8). Directed mutagenesis was used to construct plasmids encoding HA-tagged forms of GARP or TGF-β1 that are mutated at one, two, or three of these 36 positions (all mutations constructed are indicated in Table 8). […] Antibodies were used at a saturating concentration of 5 μg/ml for labeling. Binding of each antibody to a given mutant GARP/TGF-β1 complex was compared to their binding to wild type (WT) complexes, by determining an I_{m/wt} value (i.e. intensity of binding to mutant by comparison to WT). This value was calculated as follows: I_{m/wt} of antibody X=[Geom on mutant−Geom on control]/[Geom on WT−Geom on control]
# (§2) The level of residual binding of anti-GARP or anti-LAP antibodies to each mutant was then calculated by comparison to WT, taking into account the expression levels of mutant and WT forms as measured with anti-HA antibodies. Residual binding was calculated as follows: Residual binding by an anti-GARP or anti-LAP antibody=[I_{m/wt} with anti-GARP or anti-LAP antibody]/[I_{m/wt} with anti-HA antibody]
# [2] = biological target: GARP R163E/T165A / TGF-β1 complex (human, UniProt Q14392 20-662; P01137 30-390); test: as above
# Description: as §1, §2
# [3] = biological target: GARP R143Y / TGF-β1 complex (human, UniProt Q14392 20-662; P01137 30-390); test: as above
# Description: as §1, §2
# [4] = biological target: GARP / TGF-β1 Y336A complex (human, UniProt Q14392 20-662; P01137 30-390); test: as above
# Description: as §1, §2
# [5] = biological target: GARP S138G / TGF-β1 complex (human, UniProt Q14392 20-662; P01137 30-390); test: flow cytometry on transfected 293T cells, 5 ug/ml; grade of Loss of binding read by footnote 2
# Description: as §1, §2
# [6] = biological target: GARP R143A / TGF-β1 complex (human, UniProt Q14392 20-662; P01137 30-390); test: as above
# Description: as §1, §2
# [7] = biological target: GARP / TGF-β1 E100A complex (human, UniProt Q14392 20-662; P01137 30-390); test: as above
# Description: as §1, §2
# [8] = biological target: GARP G139N / TGF-β1 complex (human, UniProt Q14392 20-662; P01137 30-390); test: as above
# Description: as §1, §2
# [9] = biological target: GARP G118L/G119L / TGF-β1 complex (human, UniProt Q14392 20-662; P01137 30-390); test: as above
# Description: as §1, §2
# [10] = biological target: GARP L140K/E142L / TGF-β1 complex (human, UniProt Q14392 20-662; P01137 30-390); test: as above
# Description: as §1, §2
# [11] = biological target: GARP A114R / TGF-β1 complex (human, UniProt Q14392 20-662; P01137 30-390); test: as above
# Description: as §1, §2
# [12] = biological target: GARP M111T/A112G/T113M / TGF-β1 complex (human, UniProt Q14392 20-662; P01137 30-390); test: as above
# Description: as §1, §2
# [13] = biological target: GARP R170A / TGF-β1 complex (human, UniProt Q14392 20-662; P01137 30-390); test: as above
# Description: as §1, §2
# [14] = biological target: GARP / TGF-β1 E146R complex (human, UniProt Q14392 20-662; P01137 30-390); test: as above
# Description: as §1, §2
# [15] = biological target: GARP / TGF-β1 Q272Y complex (human, UniProt Q14392 20-662; P01137 30-390); test: as above
# Description: as §1, §2
# [16] = biological target: GARP A117R / TGF-β1 complex (human, UniProt Q14392 20-662; P01137 30-390); test: as above
# Description: as §1, §2
# [17] = biological target: GARP Y137H/S138G/G139N / TGF-β1 complex (human, UniProt Q14392 20-662; P01137 30-390); test: as above
# Description: as §1, §2
# [18] = biological target: GARP / TGF-β1 R58A complex (human, UniProt Q14392 20-662; P01137 30-390); test: as above
# Description: as §1, §2
# Sequence of GARP M111T/A112G/T113M / TGF-β1 complex (Q14392 20-662 M111T/A112G/T113M limits assumed, chain 1 of 2): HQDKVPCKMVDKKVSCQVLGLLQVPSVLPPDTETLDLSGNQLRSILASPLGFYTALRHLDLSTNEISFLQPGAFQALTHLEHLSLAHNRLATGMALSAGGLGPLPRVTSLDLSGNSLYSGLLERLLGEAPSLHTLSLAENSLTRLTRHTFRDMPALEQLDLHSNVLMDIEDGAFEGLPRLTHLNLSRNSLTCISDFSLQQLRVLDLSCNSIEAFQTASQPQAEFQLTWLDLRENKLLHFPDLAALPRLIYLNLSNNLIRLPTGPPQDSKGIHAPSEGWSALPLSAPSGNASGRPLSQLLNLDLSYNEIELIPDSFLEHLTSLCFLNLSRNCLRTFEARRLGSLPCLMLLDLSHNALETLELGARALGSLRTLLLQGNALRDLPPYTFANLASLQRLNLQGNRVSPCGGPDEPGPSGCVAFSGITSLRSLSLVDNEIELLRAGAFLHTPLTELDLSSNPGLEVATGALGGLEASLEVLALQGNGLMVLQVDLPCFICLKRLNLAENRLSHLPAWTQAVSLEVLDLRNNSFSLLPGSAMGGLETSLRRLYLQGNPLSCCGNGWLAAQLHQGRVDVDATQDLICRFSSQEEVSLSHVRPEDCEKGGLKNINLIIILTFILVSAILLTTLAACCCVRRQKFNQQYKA
# Sequence of GARP M111T/A112G/T113M / TGF-β1 complex (P01137 30-390 limits assumed, chain 2 of 2): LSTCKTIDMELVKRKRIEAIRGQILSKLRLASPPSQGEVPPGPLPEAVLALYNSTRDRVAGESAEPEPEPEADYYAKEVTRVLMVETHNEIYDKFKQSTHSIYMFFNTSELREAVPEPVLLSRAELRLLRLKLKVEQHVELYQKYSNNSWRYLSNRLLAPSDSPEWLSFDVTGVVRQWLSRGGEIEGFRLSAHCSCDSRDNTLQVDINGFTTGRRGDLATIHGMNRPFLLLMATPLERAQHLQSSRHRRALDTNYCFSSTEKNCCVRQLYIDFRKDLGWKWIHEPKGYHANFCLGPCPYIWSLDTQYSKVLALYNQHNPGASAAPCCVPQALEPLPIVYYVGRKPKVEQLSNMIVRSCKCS
# Sequence of GARP R163E/T165A / TGF-β1 complex (Q14392 20-662 R163E/T165A limits assumed, chain 1 of 2): as the sequence (Q14392 20-662 M111T/A112G/T113M limits assumed, chain 1 of 2) above, with T92M, G93A, M94T, R144E, T146A counted along it
# Sequence of GARP R163E/T165A / TGF-β1 complex (P01137 30-390 limits assumed, chain 2 of 2): as the sequence (P01137 30-390 limits assumed, chain 2 of 2) above
# Sequence of GARP R170A / TGF-β1 complex (Q14392 20-662 R170A limits assumed, chain 1 of 2): as the sequence (Q14392 20-662 M111T/A112G/T113M limits assumed, chain 1 of 2) above, with T92M, G93A, M94T, R151A counted along it
# Sequence of GARP R170A / TGF-β1 complex (P01137 30-390 limits assumed, chain 2 of 2): as the sequence (P01137 30-390 limits assumed, chain 2 of 2) above
# Sequence of GARP R143Y / TGF-β1 complex (Q14392 20-662 R143Y limits assumed, chain 1 of 2): as the sequence (Q14392 20-662 M111T/A112G/T113M limits assumed, chain 1 of 2) above, with T92M, G93A, M94T, R124Y counted along it
# Sequence of GARP R143Y / TGF-β1 complex (P01137 30-390 limits assumed, chain 2 of 2): as the sequence (P01137 30-390 limits assumed, chain 2 of 2) above
binder,measurement,setting,value
B1,residual binding on mutant by comparison to WT,[1],≥ 50%
same,residual binding on mutant by comparison to WT,[2],≥ 50%
same,residual binding on mutant by comparison to WT,[3],≥ 50%
same,residual binding on mutant by comparison to WT,[4],≥ 50%
same,residual binding on mutant by comparison to WT,[5],≥ 50%
same,residual binding on mutant by comparison to WT,[6],≥ 50%
same,residual binding on mutant by comparison to WT,[7],≥ 50%
same,residual binding on mutant by comparison to WT,[8],≥ 50%
same,residual binding on mutant by comparison to WT,[9],≥ 50%
same,residual binding on mutant by comparison to WT,[10],≥ 50%
same,residual binding on mutant by comparison to WT,[11],≥ 50%
same,residual binding on mutant by comparison to WT,[12],≥ 50%
same,residual binding on mutant by comparison to WT,[13],≥ 50%
same,residual binding on mutant by comparison to WT,[14],≥ 50%
same,residual binding on mutant by comparison to WT,[15],≥ 50%
same,residual binding on mutant by comparison to WT,[16],≥ 50%
same,residual binding on mutant by comparison to WT,[17],< 50%
same,residual binding on mutant by comparison to WT,[18],≥ 50%
